Laboratory results taken from the DeepSol protein solubility set.

assay: soluble on expression in E. coli; label from the status in PepcDB or PDB records

Sequence	soluble on expression in E. coli
MSGINGAGPSNFFWRWRADDEPVTERERDSSSGANLTNSPQLRPESPTVSGRRLLRSNALSRQTREWQETTSASAERATPPVEPRQPPEAQPAERIVAERIVQELVRAGANLNNVRTMLRNVMDNNAVAFSRVEWNILLQHFPDMHTNGISSDSVLANELRQTLRQVVHQQRTQRALAPILSPAPSRPVASSSRSSQRTLLGRFTGWMAPRQTSSSSQATSSTSVDRHPQDLNQLESLRLADAERRNRSANQTDTDEALRRLTQAGVDMERLSTSLGRYIHSFQPAPPDLRRLLESVGIDPDIPEELTLVNNPVLNLNVALNRMLASRQATTESSSVFPSRAGDTRVRTLPVMPEREDNENNVAYGVRLLRLNPEAEVERVVEAFITDPSSRPEVVADIHAVLRSITSQFRQLRTISKADAESQDFRDAADYPDDPTSCLFGEDLSLSNPHQQVIGLAGESTDILQPYSQEGNKALRFMDMKKLAEHLASKPVHPMNRDRLDDKNIAGYAFRVVPD	not soluble
MSGLHILAFGAHADDVEIGMAGTIAKYTKQGYEVGICDLTEADLSSNGTIELRKEEAKVAARIMGVKTRLNLAMPDRGLYMKEEYIREIVKVIRTYKPKLVFAPYYEDRHPDHANCAKLVEEAIFSAGIRKYMPELSPHRVESFYNYMINGFHKPNFCIDISEYLSIKVEALEAYESQFSTGSDGVKTPLTEGYVETVIAREKMFGKEVGVLYAEGFMSKKPVLLHADLLGGCKLGHHHHHH	soluble
MSGNPGSSLSALRPTPPERGSFPLDHDGECTKYMQEYLKCMQLVQNENAMNCRLLAKDYLRCRMDHQLMDYDEWSHLGLPEDAPGNNGKTIKDATDNK	not soluble
MSGNSLKGKRIGFGLTGSHCTYDAVFPEIEKLVNEGAEVLPIVTYTVKTTNTRFGEGEEWVKKLEQLTGNEVIDTIVKAEPLGPKIPLDCMVIAPLTGNSMSKLANAMTDSPVLMAAKATMRNHRPVVLGISTNDALGLNGVNLMRLMAAKNIYFIPFGQDAPQAKPNSMVAYMPLLRDTILAALEGKQLQPVIIERFRYN	not soluble
MSGQHRTRVGGVILAAGRSSRYESGNKLLATIDGKAVVRQVTETACKSSLSDAVAVLGHEKVAVAAALDGLSLSVQHNDEYATGQSASVRHGVEFARSAGWDAALFLLGDMPFVRVETIEELLEAYRTGTATVVVPEHEGRRGNPVLFDNCHFDSLASVSGDRGGRDIIETTEKTAFIEVSDPGVHWDIDTDADLAEFTDRRDSLLEHHHHHH	not soluble
MSGSDRGDRLYDVLGVTRDATVQEIKTAYRKLALKHHPDKYVDQDSKEVNEIKFKEITAAYEILSDPEKKSHYDLYGDDNGAASSGG	not soluble
MSGSFELSVQDLNDLLSDGSGCYSLPSQPCNEVTPRIYVGNASVAQDIPKLQKLGITHVLNAAEGRSFMHVNTNANFYKDSGITYLGIKANDTQEFNLSAYFERAADFIDQALAQKNGRVLVHCREGYSRSPTLVIAYLMMRQKMDVKSALSIVRQNREIGPNDGFLAQLCQLNDRLAKEGKLKP	soluble
MSGSTESKKQPRRRFIGRKSGNSNNDKLTTVAENGNEIIHKQKSRIALGRSVNHVPEDILNDKELNEAIKLLPSNYNFEIHKTVWNIRKYNAKRIALQMPEGLLIYSLIISDILEQFCGVETLVMGDVSYGACCIDDFTARALDCDFIVHYAHSCLVPIDVTKIKVLYVFVTINIQEDHIIKTLQKNFPKGSRIATFGTIQFNPAVHSVRDKLLNDEEHMLYIIPPQIKPLSRGEVLGCTSERLDKEQYDAMVFIGDGRFHLESAMIHNPEIPAFKYDPYNRKFTREGYDQKQLVEVRAEAIEVARKGKVFGLILGALGRQGNLNTVKNLEKNLIAAGKTVVKIILSEVFPQKLAMFDQIDVFVQVACPRLSIDWGYAFNKPLLTPYEASVLLKKDVMFSEKYYPMDYYEAKGYGRGETPKHAIE	soluble
MSHKFSRRAFAVLTAAAISTSAFATTAPSAIAEPVSNVATADDSSVATSENSLDWGFKASWRTYVTGPWTGGTVDATGGATVNEDGTYNFTLGTGSNYDVDTEKGQLNYEGTVAFASDAHGFNITLSNPQITVEGDTATLSAELSDNAAPEETSTTRVDVAEFELTAPEVSETDADITYTWTDASGTFLETLQPEELSRYAGQEADALSFSITVDKASENPSDDVATGSSSSFLSTILNFLQQLASPLLKLFGSLSS	not soluble
MSHLDEVIARVDAAIEESVIAHMNELLIALSDDAELSREDRYTQQQRLRTAIAHHGRKHKEDMEARHEQLTKGGTIL	soluble
MSHSYSVPKKFPTTVVGSYPKIGPASEAIKKRRAGEISEEEFHRIARESIRMVVEDYIWAGVDIISDGEQTREDMVVYFAERLEGYREGDWVRVFDNVYFRKPIVAGRVRWVRPMIIEDWEYARSISAGRPVKFIITGPYTMLEWSFDLHYGDRRELIFDLARAIRREIDEALARGAEYIQVDEPALSTRPFKEEAELLKEALDIIFKGVGAKRIVHICYGELERILPYILDYPVDQFDLEMKNSNFRLLPYLKEYGYDKEIGYGVIDVHSFQVESVGEVKEAIDRLMKMDIVGPEKVYVDPDCGLKRLPRDVARAKLKNMVEAARLAREEWMAGDPLEHHHHHH	not soluble
MSIAQQLMDMGFPADKAEAAAGNNRNLDQALDWIEKDGAGVPMETDAPAQAAPGAADSGAPPVAASFKCDDCGKLLANDDAIMFHASKTKHENFSESSEAIKPLTAEEKAAKVLEIREKIKVHQAKKAKLEAEENREKEKKRREDGKAMISHKEAARDREIREAAQDRRREKNEDEIARKRVLEQIRLDKEARKAKASGQPVPEAKPAPSAAPVAPPKDYSTTTLQFRLLDGQTVRQQFEANEPLAMVRAWVETNHANGVPFTLMTPFPRKVFTEDDMGTPLKVLNLVPSANVILNRAA	not soluble
MSIEVPISIPKTLIIIPAYNEEEAIADTLTRLLELKQHFTALSICVINDGSQDKTAQIVKNFPVHLINLPYNLGIGSAVQTGYKYAYENGYDIAIQFDADGQHNPDDLYKIIQPIAEGQCDMVLGSRFTEKTAYKGSISRRIGIFYFTALLKVLTKQTFMDPTSGYRAINREVITIFAHNYPKDYPEPEVLIHLKKKKLRINEISVNMQERQGGQSSITPLKSAYYMIKVSLAILMQKIVKGLEHHHHHH	not soluble
MSIRNSASRDDTSASVEDSILDAARSCILDFGLRRTTLAEVARRAGVSRPTVYRRWSDTRAVVADLMTREIAAVMPEFSVEESVHRQLVDAVVHVSTEVRDHPLFVKILRSDQELFTTYILERLGTSQRAIIDQVAFAVSTGQDQGSIRAGDSRHIATMVLLIAQSAVQSAVMVAEELPGDALTEQLRHAVGAYLAPDVAVTHPTDRGDR	not soluble
MSITLRTYIFLDALQPQLATFIGKTARGFLPVPGQASLWVEIAPGIAINRVTDAALKATKVQPAVQVVERAYGLLEVHHFDQGEVLAAGSTILDKLEVREEGRLKPQVMTHQIIRAVEAYQTQIINRNSQGMMILPGESLFILETQPAGYAVLAANEAEKAANVHLVNVTPYGAFGRLYLAGSEAEIDAAAEAAEAAIRSVSGVAQESFRDR	not soluble
MSKDEILKLGREEFFKSVKMEYRPYFEPYETPESVYPDGSINIDCTCLHSALAHRCGYLIRDALVCFNASKTTPRGLDCEKEFVAHAICTEEANNKS	not soluble
MSKIEIFEAAGCCATSSVVVSDEAVKWNASAEWAKKHGVNIQRYSLAKNPQQFLNTPVIRAFLNTSGMESLPATLLDGQLVMAGKLPSREDIARWAG	soluble
MSKKFEGSVAPRERINISYVPKTDGQTAEVELPLNMLVVGDTGNTQETSSLDERQAVSVNKHNFGAVMAEAAIGLNFTVPATLKGSTTDDEMNVALNIKSLDDFSPDSVARQVPEVNKLLELREALTALKGPMGNLPAFRTQLQALLENEESREQLLKEIGQVSNK	soluble
